In the supplement of paper PMC9233669:
Variants at the floor of the assay were thinned out.

What was measured:
biotinyl-Phe-oxazolone = test: self-aminoacylation, catalytic enhancement (BFO) (fold over background); higher = more active; k-Seq, kA / k0A0; sequences stand for … in GGGAAUGGAUCCACAUCUACGAAUUC…UUCACUGCAGACUUGACGAAGCUG
Summary of the method: (§1)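 Mutagenized RNA pools (0.43 μM; 21-nt variable region) were treated with 2–1250 μM of each biotinyl-aminoacyl-oxazolone. Conditions were 50 μL HEPES/NaCl/KCl/MgCl2/CaCl2 buffer, 5% acetonitrile, pH 6.9–7.0, room temperature, 90 minutes. Catalytic enhancement, the median kA relative to the uncatalyzed rate, was derived from streptavidin capture, qPCR and Illumina sequencing.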

biotinyl-Leu-oxazolone = test: self-aminoacylation, catalytic enhancement (BLO) (fold over background); higher = more active; k-Seq, kA / k0A0; sequences stand for … in GGGAAUGGAUCCACAUCUACGAAUUC…UUCACUGCAGACUUGACGAAGCUG
Summary of the method: as §1

biotinyl-Val-oxazolone = test: self-aminoacylation, catalytic enhancement (BVO) (fold over background); higher = more active; k-Seq, kA / k0A0; sequences stand for … in GGGAAUGGAUCCACAUCUACGAAUUC…UUCACUGCAGACUUGACGAAGCUG
Summary of the method: as §1

biotinyl-Trp-oxazolone = test: self-aminoacylation, catalytic enhancement (BWO) (fold over background); higher = more active; k-Seq, kA / k0A0; sequences stand for … in GGGAAUGGAUCCACAUCUACGAAUUC…UUCACUGCAGACUUGACGAAGCUG
Summary of the method: as §1

biotinyl-Met-oxazolone = test: self-aminoacylation, catalytic enhancement (BMO) (fold over background); higher = more active; k-Seq, kA / k0A0; sequences stand for … in GGGAAUGGAUCCACAUCUACGAAUUC…UUCACUGCAGACUUGACGAAGCUG
Summary of the method: as §1

biotinyl-Ile-oxazolone = test: self-aminoacylation, catalytic enhancement (BIO) (fold over background); higher = more active; k-Seq, kA / k0A0; sequences stand for … in GGGAAUGGAUCCACAUCUACGAAUUC…UUCACUGCAGACUUGACGAAGCUG
Summary of the method: as §1

Sequence | self-aminoacylation (biotinyl-Phe-oxazolone) | self-aminoacylation (biotinyl-Leu-oxazolone) | self-aminoacylation (biotinyl-Val-oxazolone) | self-aminoacylation (biotinyl-Trp-oxazolone) | self-aminoacylation (biotinyl-Met-oxazolone) | self-aminoacylation (biotinyl-Ile-oxazolone)
AUCCACCUAGGUCAUCGGGCG [Fam2.2 aminoacylation ribozyme variant] | 20.9 | 5.85 | 3.87 | 3.38 | 5.3 | 4.91
AUCCACCUAGGUCAUCGGGUA [Fam2.2 aminoacylation ribozyme variant] | 275 | 53.2 | 18.1 | 26.5 | 39.4 | 20.2
AUCCACCUAGGUCAUCGGUUG [Fam2.2 aminoacylation ribozyme variant] | 5.85 | 1.41 | 1.52 | 1.84 | 1.5 | 1.31
AUCCACCUAGGUCAUUGGGUG [Fam2.2 aminoacylation ribozyme variant] | 24.6 | 3.86 | 3.24 | 3.8 | 3.76 | 3.51
AUCCACCUAGGUCCUCGGGUG [Fam2.2 aminoacylation ribozyme variant] | 31.1 | 6.47 | 4.71 | 6.83 | 6.2 | 3.76
AUCCACCUAGUUCAUCGGGUG [Fam2.2 aminoacylation ribozyme variant] | 24.1 | 4.83 | 3.24 | 4.63 | 3.53 | 2.9
AUCCACGUAGGUCAUCGGGUG [Fam2.2 aminoacylation ribozyme variant] | 37.4 | 4.88 | 4.96 | 4.86 | 4.61 | 3.4
AUCCACUUAGGUCAUCGGGUG [Fam2.2 aminoacylation ribozyme variant] | 63.8 | 8.6 | 4.85 | 7.26 | 6.88 | 5.19
AUCCCCCUAGGUCAUCGGGUG [Fam2.2 aminoacylation ribozyme variant] | 132 | 17.6 | 8.74 | 12.6 | 13.3 | 8.62
AUGACCCUGGUCAACGAGUGA [Fam2.1 aminoacylation ribozyme variant] | 32.5 | 6.02 | 3.52 | 6.86 | 5.77 | 3.48
AUGACCCUGGUCAUCGAGUUA [Fam2.1 aminoacylation ribozyme variant] | 9.13 | 5.29 | 2.44 | 3.71 | 6.25 | 2.81
AUGACCCUGGUCAUCGCGUGA [Fam2.1 aminoacylation ribozyme variant] | 126 | 17.1 | 7.53 | 19.7 | 16 | 7.46
AUGACUCUGGUCAUCGAGUGA [Fam2.1 aminoacylation ribozyme variant] | 23.2 | 5.16 | 2.75 | 5.56 | 4.86 | 2.62
AUGAUUGCUAAUAGUCGCAAG [Fam3.1 aminoacylation ribozyme variant] | 2.06 | 1.53 | 1.24 | 1.61 | 1.67 | 1.34
AUGCACCAAGGUCAUCGGGUG [Fam2.2 aminoacylation ribozyme variant] | 59.9 | 9.2 | 5.23 | 9.96 | 7.84 | 4.95
AUGCACCUAGAUCAUCGGGUG [Fam2.2 aminoacylation ribozyme variant] | 10.6 | 2.64 | 2.69 | 3.8 | 2.41 | 2.13
AUGCACCUAGGACAUCGGGUG [Fam2.2 aminoacylation ribozyme variant] | 19.4 | 4.43 | 2.54 | 5.58 | 3.57 | 3.37
AUGCACCUAGGGCAUCGGGUG [Fam2.2 aminoacylation ribozyme variant] | 30.6 | 3.16 | 3.46 | 4.75 | 3.04 | 2.89
AUGCACCUAGGUCAUCGAGUG [Fam2.2 aminoacylation ribozyme variant] | 4.83 | 3.96 | 2.56 | 3.75 | 3.33 | 2.61
AUGCACCUAGGUCAUCGGGAG [Fam2.2 aminoacylation ribozyme variant] | 1.08 | 1.54 | 1.51 | 1.94 | 1.39 | 1.56
AUGCACCUAGGUCAUCGGUUG [Fam2.2 aminoacylation ribozyme variant] | 5.04 | 1.28 | 1.24 | 1.48 | 1.26 | 1.42
